We go through 7 substances from patent publication US20130117870.

Test in all cases: cell_activity
Data set [1] relates to LDLRE2.1 (LDLR2.1) TALEN pair (synthetic construct). As to conditions: mRNA, pig fibroblasts, 30 C; plasmid 14.4-21.5.
The test system of data set [2] is ACAN12 TALEN pair (+231) (synthetic construct). As to conditions: +231 scaffold in fibroblasts; indels confirmed in bovine embryos (Table 2).
Data set [3] concerns ACAN12 TALEN pair (+63) (synthetic construct). To be noted: SURVEYOR, bovine fibroblasts; 29 in Table 1.
Data set [4] concerns DMDE6 TALEN pair (synthetic construct). To be noted: pig fibroblasts.
The subject of data set [5] is DMDE7.1 TALEN pair (synthetic construct). To be noted: SURVEYOR, pig fibroblasts; 27 in Table 1.
Data set [6] relates to GHRHR2.3 TALEN pair (synthetic construct). To be noted: mRNA, female pig fibroblasts; male 32.5; puro-free plasmid G-418 29.
The subject of data set [7] is LDLRE4.2 TALEN pair (synthetic construct). As to conditions: male pig fibroblasts; female 19.
In data set [8] the test system is p65 (p6511.1) TALEN pair (synthetic construct). To be noted: 10 ng/ul mRNA each, porcine zygotes.

Take “CTCCTACAAGTGGATTGTGATGGGAACACCGAGTGCAAGGACGGGTCCG (double strand) [porcine LDLR exon 2 target]”: in data set [1], the activity (% modified (day 3)) came to 34.

On to bovine ACAN12 target, for which the activity (% chromosomes cleaved) in data set [2] is below 1; in data set [3], 25.

For porcine DMD exon 6 target, in data set [4], the activity (% modified (day 3)) stood at 25.

porcine DMD exon 7 target registered an activity (% chromosomes cleaved) in data set [5] of 38.

porcine GHRHR target had an activity (% modified (day 3)) in data set [6] of 35.

In turn, porcine LDLR exon 4 target showed an activity (% modified (day 3)) in data set [7] of 20.

porcine RELA (p65) target showed an activity (% embryos with indels (16/56)) in data set [8] of 29.
